In the assay the target is PspR, DTG rhodopsin from Pseudomonas putida (Pseudomonas putida). Nature of the assay: crystal structure.

Regarding “PspR, DTG rhodopsin from Pseudomonas putida (natural protein)”, the stoichiometry N was determined as 3.

A word on the stoichiometry N: it is a count of units in the complex or per binding partner.
